This note sets out measurements from paper PMC8080530, “Glucocorticoid receptor Thr524 phosphorylation by MINK1 induces interactions with 14-3-3 protein regulators” (The Journal of Biological Chemistry, 2021).

No end group written: not given here. *: point of attachment. FITC = O=C1OC2(c3ccc(O)cc3Oc3cc(O)ccc32)c2ccc(NC(=S)*)cc21

The target of experiment [1] is GFP-GR T524A S617A, full-length GR double mutant (human) (UniProt P04150). Kind of experiment: co-IP; GFP-Trap agarose beads on RIPA lysates of transfected U2OS or HEK293 cells stimulated with forskolin or calyculin A; blot with anti-pan 14-3-3 antibody.
Experiment [2] has as its target human 14-3-3ζ, full length, 6His-Linker-h14-3-3 (human) (UniProt P63104). Kind of experiment: SPR; Biacore 3000; 6His-tagged 14-3-3 immobilised on an NTA chip (2000 RU 14-3-3ζ, 4000 RU 14-3-3σ); peptides injected in HBS P+ buffer with 1 or 3% DMSO, 20 μl/min; Hill fit; triplicates. (In general: SPR reads the build-up and loss of mass on a sensor chip optically.)
The target in experiment [3] is GR_pS134, FITC-labelled 13-mer phosphopeptide (human) (UniProt P04150). The experiment in a line: fluorescence polarisation; FITC-labelled peptide at 60 nM (monophosphorylated) or 10 nM (doubly phosphorylated) titrated with 14-3-3ζ or 14-3-3σ in dilution series from 300 μM or 150 μM; 30 min at RT; 384-well plate; Hill fit; triplicates.
Experiment [4] deals with GR_pS134-pT524, FITC-labelled 31-mer doubly phosphorylated peptide (human) (UniProt P04150). The experiment is described as above.
Experiment [5] deals with GR_pS524-pS617, FITC-labelled diphosphoserine analogue of GR_pT524-pS617 (human) (UniProt P04150). The description is as above.
For experiment [6], the target named is GR_pT524-pS617 with K518 replaced by alanine (alanine scan) (human) (UniProt P04150). The experiment is described as above.
Experiment [7] has as its target GR_pT524-pS617 with P526 replaced by alanine (alanine scan) (human) (UniProt P04150). The description is as above.
Experiment [8] deals with GR_pT524-pS617 with R614 replaced by alanine (alanine scan) (human) (UniProt P04150). The description is as above.
For experiment [9], the target named is GR_pT524-pS617 with pS617 replaced by alanine (alanine scan) (human) (UniProt P04150). The description is as above.
Experiment [10] has as its target GR_pT524-pS617 with pT524 replaced by alanine (alanine scan) (human) (UniProt P04150). Described as above.
Experiment [11] concerns the target GR_pT524-pS617, FITC-labelled 31-mer doubly phosphorylated peptide (human) (UniProt P04150). The description is as above.
Experiment [12] concerns the target GR_pT524-pT562, FITC-labelled 51-mer doubly phosphorylated peptide with the native sequence as a linker (human) (UniProt P04150). The experiment is described as above.
Experiment [13] addresses T1, human 14-3-3ζ, full length, 6His-Linker-h14-3-3 (human, UniProt P63104 1-245).
T1 chain: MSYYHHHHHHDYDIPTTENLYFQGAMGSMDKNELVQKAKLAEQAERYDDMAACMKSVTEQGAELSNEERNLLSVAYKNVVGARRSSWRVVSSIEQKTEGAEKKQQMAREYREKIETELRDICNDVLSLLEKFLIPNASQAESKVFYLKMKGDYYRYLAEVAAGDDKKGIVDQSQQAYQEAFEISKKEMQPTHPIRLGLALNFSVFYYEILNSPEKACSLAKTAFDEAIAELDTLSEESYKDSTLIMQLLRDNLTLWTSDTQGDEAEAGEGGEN
Kind of experiment: FP.

Experiment [14] addresses T1, human 14-3-3ζ, full length, …. The experiment in a line: SPR.

Chain of GR_pT524-pT562, FITC-labelled 51-mer doubly phosphorylated peptide with the native sequence as a linker (human) (P04150 518-568): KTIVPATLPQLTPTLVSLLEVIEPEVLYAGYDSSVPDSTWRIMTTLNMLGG
Chain of GFP-GR T524A S617A, full-length GR double mutant (human) (P04150 whole entry T524A/S617A): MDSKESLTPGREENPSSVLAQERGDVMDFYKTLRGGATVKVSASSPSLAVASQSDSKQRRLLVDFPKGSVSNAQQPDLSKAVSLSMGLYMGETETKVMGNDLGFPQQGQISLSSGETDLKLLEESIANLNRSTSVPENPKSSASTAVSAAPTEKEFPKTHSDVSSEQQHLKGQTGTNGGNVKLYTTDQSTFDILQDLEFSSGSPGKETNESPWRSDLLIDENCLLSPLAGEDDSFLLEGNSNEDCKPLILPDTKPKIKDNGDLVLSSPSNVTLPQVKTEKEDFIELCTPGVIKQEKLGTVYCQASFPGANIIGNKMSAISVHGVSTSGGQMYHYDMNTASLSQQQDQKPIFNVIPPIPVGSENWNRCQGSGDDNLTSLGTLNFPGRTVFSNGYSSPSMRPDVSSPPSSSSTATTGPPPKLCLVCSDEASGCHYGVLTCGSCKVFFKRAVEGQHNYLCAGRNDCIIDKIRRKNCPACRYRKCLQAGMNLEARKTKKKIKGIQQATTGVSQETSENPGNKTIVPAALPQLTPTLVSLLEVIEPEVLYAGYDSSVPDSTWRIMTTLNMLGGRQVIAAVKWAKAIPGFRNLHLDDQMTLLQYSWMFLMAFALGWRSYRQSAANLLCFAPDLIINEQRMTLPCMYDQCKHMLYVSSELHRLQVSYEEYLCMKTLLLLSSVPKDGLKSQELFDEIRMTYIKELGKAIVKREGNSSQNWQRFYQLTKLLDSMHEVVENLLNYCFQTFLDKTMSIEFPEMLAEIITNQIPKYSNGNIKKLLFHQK

For the molecule “14-3-3 proteins, endogenous (detected with anti-pan 14-3-3 antibody) (from UniProt P63104 1-245) (natural protein)”, in [1], the decrease of the interaction against the WT GR was found to be 35%.
In general, Kd refers to the equilibrium constant for the complex coming apart. A low value points to a tighter complex. “GR_pT524-pT562, 51-mer doubly phosphorylated peptide used for SPR (from UniProt P04150 518-568)” registered an equilibrium dissociation constant (Kd) in experiment [2] of 15000 nM.
Take “human 14-3-3ζ, full length, 6His-Linker-h14-3-3 (from UniProt P63104 1-245) (natural protein)”: the Kd in [3] turned out to be 90000 nM; in [4], 550 nM; in experiment [5], 140 nM; in experiment [6] it was 110 nM; in [7] it was 1200 nM; in [8], 220 nM. In addition, the Kd turned out to be 1300 nM in experiment [9], 120000 nM in experiment [10], 18 nM in experiment [11] and 23000 nM in experiment [12].

B1: GR_pS83-pT524, FITC-labelled 31-mer doubly phosphorylated peptide (peptide)
peptide: {FITC}-DLSKAVSLSMGLYGGGGGKTIVPATLPQLTP
modifications: also: phosphoserine at S83 and phosphothreonine at T524, places in chain not given here
For B1, the Kd in experiment [13] was 900 nM.

B2: GR_pT524-pS617, 31-mer doubly phosphorylated peptide used for SPR and crystallography (peptide)
peptide: KTIVPATLPQLTPGGGGGRSYRQSSANLLCF
modifications: also: phosphothreonine at T524 and phosphoserine at S617, places in chain not given here
For B2, in [14], the Kd came out at 30 nM.
